The DeepSol protein solubility set

assay: soluble on expression in E. coli; label from the status in PepcDB or PDB records

Sequence	soluble on expression in E. coli
MPASEDYEGQVPAWCPGCGNFQILSTIKQALAELGIEPREVLLVSGIGQAGKLPHYIKCHTFNGLHGRTLPVATAAKLANHSLHVIAVAGDGDCYAEGGNHFLHAIRRNPNISLFVHNNQIYGLTKGQASPTSAKGTHTPAQPFGYLAHPFNPLALAISQDCSFVARGFAGDQEHLKELIKAAITHRGFSLLDILQPCVTFNKVNTFKWYRERVYRLESDYDPYNQTKAFEKALEWGDKIPNGIFYKSDKETLEEMMPTLHEMPLVRKKFSPEDVKHEIEKFY	not soluble
MRVYAIADPHLSRVHPKPMTVFGAGWEGHPEAFFRGWREVVGEEDLVVVPGDISWAMRLSEAIPDLLDLARLPGRKVLLKGNHDYWWPSISRLRAALPPGMYALQNDALVVDGVAVAGTRGWQYPPQTPEDEKVFAREVERLKLSLKALEGQPYRHLVVAFHFPPFGPGGEASPLLELAAGAHPQAIVYGHLHGADPAKLPQSYRGIPLHLVAADALRFRPKLVLEAD	soluble
MSKVNEITRESWILSTFPEWGTWLNEEIEQTVVEPNTFSMWWLGCTGIWLKSAGNTNLSIDFWCGTGKKTQKNRLMNTQHQMMRMGGVEALQPNLRTSIFPLDPFAIKEIDAVLASHDHADHIDVNVAAAVLQNCGEHVKFIGPQACVDLWLGWGVPQERCIVAKVGDVLEIGDVKIRVLDSFDRTALVTLPKGVSSYDKAILDGMDERAVNYLIETSGGSVYHSGDSHYSNYYAKHGNDYQIDVALLSYGENPRGVTDKMTSSDVLRAAESLDCQVVVPFHHDIWANFQNDPREIEVLWNMKKDRLQYQFAPFFWQVGGKYTYPTDKGRMHYQHFRGFQDIFKNEPELPYKAFL	soluble
MGHHHHHHSHMDRWSAGTLENSILNAYLHTIRGSQHFLYIENQFFISCSDGRTVLNKVGDEIVDRILKAHKQGWCYRVYVLLPLLPGFEGDISTGGGNSIQAILHFTYRTLCRGEYSILHRLKAAMGTAWRDYISICGLRTHGE	soluble
MALNNVSLSSGDQRSRVAYRSSHGDLRPRASALAMVSGDGFLVSRPEAIHLGPRQAVRPSVRAESRRVDGGGRSPREPDGRGRSRQARFSPYPIPAVEPDLLRSVLQQRLIALGGVIAARISV	soluble
MGSDKIHHHHHHMANVKWTMKAREFVNCNCAYGCPCQFNAMPTHGFCQAVTGIEIESGHHGATKLDGLRLVGIFRWPGAIHQGGGEAAVVVDERASEAQREALLRILGGQDTKPGATIFEVFSTTLEKFHDPIFAPIEFEVDVDARTGRLHVEGVADGHGEPIKNPVTGAEHRARIDLPHGFEYAMAEIGRGWTKATGPIKFEVADTHSHFANLHLTQSGVVH	not soluble
MTINASNSATKKDKPAKYTMIKQYICEHIESGEWPQNAKVPSENELTQQFDVSRMTARRALQELTEQGILVRSQGAGTFVATFKSQSSLLEIRNISDEISDRGHQHKAKQLLLNSTAVTDEIAILLNLKNNEDVFYSEILHYENDDAIQLEQRFVNVSLVPDYLLQNFTQITPHEYLSSVAPLTEATHEIEAILASDEICQQLDIQSTTPCLQVKRRTWSKQGVVSVAILTSPGDKYRLGSHLKF	not soluble
SLGEMKRAAIIIDDFGGDVKGVDDFLTGEIPVTVAVMPFLEHSTKQAEIAQAAGLEVIVHMPLEPKKGKISWLGPSGITSNLSVGEVKSRVRKAFDDIPYAVGLNNHMGSKIVENEKIMRAILEVVKEKNAFIIDSGTSPHSLIPQLAEELEVPYATRSIFLDNTHSSRKEVIKNMRKLAKKAKQGSEPIGIGHVGVRGDETYAGIRSMLDEFQAESIQLVPVSQLLPSPIEEDHNKFWQQPFQAKE	soluble
MSLDFNDEIYRELNRICASLSQQCSTYQPEFRTCLDAAFQALRGGKLIRPRMLLGLYNTLVDDDIEVKLNTVLQVAVALELLHFSLLVHDDVIDGDLYRRGKLNFIGQILMHRTPESFAQIQRDPEHLDWAQSNGLLMGNLFLAATHQIFARLDLPHHQRVRLLDLLNHTINDTIVGEFLDVGLSSKAISPNMDIALEMSRLKTATYTFELPMRAAAILAELPQEIETKIGEIGTNLGIAYQLQDDYLSTFGDAAEHGKDAFSDLREGKETTIIAFARDTAKWTDIQDNFGSADLSTSQAERIQHLLIQCGAKNHSLNAISDHLNICRSMIKTLSPQVDPKAQNLLLKQVEQLASRKSEGHHHHHH	soluble
MGSDKIHHHHHHMHTESIKTPTDNHAKGAVSSTVSPTTYTPDLPSDEEDYSTLINMLPPVAPSSTPTEDESTESDNMPTDALHDFSQSLETQYGIAPGVNIQQQRQQRAEANGLTFACVGRQPVDDIWQIYPARKHKLEAYSLALDIAESVGLERYVEHVVNTPVDYAYRMLPLENAVENEMVKMCYDLLMLLQTVDSTSYPSVSITLSFLLDAEKIDDVTLVKLFRLIRLVRYIRQGAHHDNV	not soluble
IPKNTGGVLNSSVLDDAFSFITSYFDIEYGGLGFGAKFPHPFVDLLFLNYSATRGDDLGKKLGLFTLRKMYYGGIFDQVGGGFHRYTVDREWKLPHFEKLLIDNAELIYDYFTYYIATNDIEILDALRNSVDFVLRELYIDGKGFANSLDADSEGMEGKYYTWTEDELKDSLGNDY	not soluble
MPNVKDITRESWILSTFPEWGTWLNEEIEEEVVAEGNFAMWWLGNCGVWIKTPGGANVVMDLWSNRGKSTKKVKDMVRGHQMANMAGVRKLQPNLRAQPMVIDPFAINELDYYLVSHFHSDHIDINTAAAIINNPNLDHVKFVGPYECGEIWKKWGVPEERIIVIKPGESFEFKDIKVTAVESFDRTCLVTLPVDGAEEHDGELAGLAVTDEEMARKAVNYIFETPGGTIYHGADSHFSNYFAKHGKDYKIDVAINNYGDNPVGIQDKMTSIDLLRMAENLRAKVIIPVHYDIWSNFMASTDEILQLWKMRKERLQYDFHPFIWEVGGKYTYPQDKDRIEYHHPRGFDDCFEQESNIQFKALLMAGDPLEHHHHHH	soluble
MGETKADFRDMSRIPKVREGFYATNNQFQKAGPKGFVQVKVLENDNLYVRVDLPGVPDDAVRYRVDAVRQKVVFFSGETLNNGKEGVRQYSGTAGLGCDCCEITGVDAKMKDGVLRMILTRVKVVSKAQDNNNNKCTLTVPPFTGQSGIRLEDHPCLVSGRKGALIGVTKAGGGAHFAVDMPGVSPDDVEVYADEKEIRFKAEIKDVYEHDESGRTYLGSVQSPFPALISNNTIAWDAEFGVLRIAVIPPDDMTTINNKRNPIE	soluble
MARPNFRYTHYDLKELRAGTTLEISLSSVNNVRLMTGANFQRFTELLDFKYLGGVAKKSPIRIAVPETMHWHLIIDAEGHSGLAESSVKMLPAQPQATLTRKAS	soluble
MSLNPASPFATLTDRIDWQKVDGLVPAIVQDFQSSQVLMMGYMNPEALQKTLDTQQVTFFSRSKQRLWTKGETSGHVLQLKNIALDCDQDTLLVKVNPIGPTCHTGTVTCWDGDAQEESQMVWLHQLEQLLAERKNADPSSSYTASLYARGTKRIAQKVGEEGVEVALAATAGDKEELICESADLMYHLLVLLQEQGLAMNDVINKLKERHKEGHHHHHH	soluble
MSKFPVPLRTIGGLRPSTTAAISAANIGFTQSSRALSTGAAAKSSGLVGQVARQYPNAAAFSIKQVRLYSSGNLPKHNRVALPALSPTMELGTVVSWQKKEGDQLSEGDLLCEIETDKATMGFETPEEGYLAKILIQEGSKDVPIGKLLCIIVDNEADVAAFKDFKDDGASSGGSAPAAEKAPEPAKPAASSQPSPPAQMYQAPSVPKSAPIPHSSSGRVSASPFAKKLAAENGLDLSGVSGSGPGGRILASDLSQAPAKGATSTTTQAVSGQDYTDIPLSNMRKTIAKRLTESKSTIPHYYLTSEIQLDTLLQVREKLNGLLAKGTSGQATKISINDFIIKASALACQRVPEANSYWMDSFIRENHHVDVSVAVSTPAGLITPIIFNAHAKGLATIASEIVELAQRAREGKLQPHEFQGGTFTVSNLGMFGSVSDFTAIINPPQSCILAIGGASDKLVPDEAEGYKKIKTMKVTLSCDHRTVDGAVGAVWLRHFKEFLEKPHTMLL	not soluble
MIEADYLVIGAGIAGASTGYWLSAHGRVVVLEREAQPGYHSTGRSAAHYTVAYGTPQVRALTAASRAFFDNPPAGFCEHPLLSPRPEMVVDFSDDPEELRRQYESGKALVPQMRLLDAEQACSIVPVLRRDKVFGATYDPTGADIDTDALHQGYLRGIRRNQGQVLCNHEALEIRRVDGAWEVRCDAGSYRAAVLVNAAGAWCDAIAGLAGVRPLGLQPKRRSAFIFAPPPGIDCHDWPMLVSLDESFYLKPDAGMLLGSPANADPVEAHDVQPEQLDIATGMYLIEEATTLTIRRPEHTWAGLRSFVADGDLVAGYAANAEGFFWVAAQGGYGIQTSAAMGEASAALIRHQPLPAHLREHGLDEAMLSPRRLSPLEHHHHHH	not soluble
MKSLQIYLFLFLSVFALGACIQNDIPYPYIKGEITAFEVEGQTGDAEINKNSRTIVVEVGDEVDIEELRITRFVVNEEATYSIDEQYCVSPNKFPSAGFSALADLPAGADTRVDFSKTVPVLLRTYQDYQWMITVKQTIERVVEVENQALPAIIDDKNHTVLVYVSQKQDLSAVKITKMILGGSKATITPDPSTVTNFRRPQEFVVNRFDKEELWTVDVVRTTSTGTTGSADVWATRATLNGGMKQGTTPRVEYRKKSEDTWTVVPETDVKLESGTTFSTTLTGLQDGTDYVWRVVVEEVPSTESGFTTEKIQEIPNLNFDTWSQNPTGTFKKSWYPNADGSNSFWATGNDGVTSSLAGSRDSSTRPEEKSVVNGKAAYMVTLGSVPLVGVAAGNLFIGDYKTNAQSPKDSPKFGRSFTGARPTGLKGWYKYTSKPVDYVGNPDNLKNDECHIYLRLWDDKDNEIGYGEFIGKETVTQYTQFRFDVTYTNKTAKPAKITIVATSSHYGGDFTGMKVTGSVGVGSELWVDEFELLYELEHHHHHH	soluble
MGKTLVVGAGGVSHAAVHKMAMNSDIFTEITLASRTKAKCDAIAASVKERTGVTIQTAALDAMDVAATVALIKETGAEILVNLALPYQDLKLMDACLEAGCHYLDTANYEPEDVAKFEYHWQWAYQDKFKEAGLTAILGSGFDPGVTSVFATWLKKHKLATIRQIDVLDA	not soluble
MSLSVAIIGPGAVGTTIAYELQQSLPHTTLIGRHAKTITYYTVPHAPAQDIVVKGYEDVTNTFDVIIIAVKTHQLDAVIPHLTYLAHEDTLIILAQNGYGQLEHIPFKNVCQAVVYISGQKKGDVVTHFRDYQLRIQDNALTRQFRDLVQDSQIDIVLEANIQQAIWYKLLVNLGINSITALGRQTVAIMHNPEIRILCRQLLLDGCRVAQAEGLNFSEQTVDTIMTIYQGYPDEMGTSMYYDIVHQQPLEVEAIQGFIYRRAREHNLDTPYLDTIYSFLRAYQQNEGHHHHHH	soluble
SIPAGITAAYIHKGHDTTHGGGEMVLEVPHDKTIPVLRFLRDHSSCLYDCFIDCTAADFPQKPQRFRVVYNLLSLKYSSRIRVQTHVDEVTPIESATCLFKGANWPEREVWDLFGVFFYNHPDLRRILTDYGFEGHPLRKDFPLSGYVEVRYDDTEKRVVIEPVEITQEYRAFDYTSPWEVFPEGGNFEEAEKLPERV	soluble
MAEPLFDMSATGRPRILILGGTTEARQLAERLVSEPHYDTAISLAGRTADPRPQPLPTRTGGFGGAEGLAVFLRERNIALLIDATHPFAARISLNAAAAAKMTGTPLLALRRPAWAAEPGDRWTCVGSVAEAVPALGEAPRRVFLAIGRQEAFHFERAPQHSYVVRSVDPVMPPLDLPDVTAILASGPFAQADETELLERHGIDVIVAKNSGGAATYGKIAAARQLGIEVVMVERHKPADVQSVGDCDEALERIRQWLSPVKDRGV	not soluble
MAQDIKNEEVEEVQEEEVVKTAEETTPEKSELDLANERADEFENKYLRAHAEMQNIQRRANEERQNLQRYRSQDLAKAILPSLDNLERALAVEGLTDDVKKGLGMVQESLIHALKE	not soluble
